This passage reports Kd results from US20080227691A1.

As usually defined, the Kd is a measure of binding affinity in units of concentration. A lower Kd goes with a tighter complex.

This assay concerns the target LRP (low density lipoprotein receptor-related protein) (human) (UniProt Q07954). Put plainly: SPR, Biacore 3000, LRP amine-coupled to CM5 chip, A2 domain as analyte 62.5-500 nM, 1:1 Langmuir fit, 25 C. In general terms: SPR reads the build-up and loss of mass on a sensor chip optically.
In the case of “HPC4-tagged A2 domain mutant 433D->N (from UniProt P00451 392-759) (ligand)”, the Kd was 170 nM.
“HPC4-tagged A2 domain mutant 488S->N & 490R->T (from UniProt P00451 392-759) (ligand)” came in with a Kd of 260 nM.
Turning to “HPC4-tagged A2 domain of wild-type FVIII (from UniProt P00451 392-759) (ligand)”, the Kd turned out to be 20 nM.
